# Source: publication PMC5843810, “18th European Symposium on Radiopharmacy and Radiopharmaceuticals” (EJNMMI Radiopharmacy and Chemistry, 2016)
# Target: Gastrin-Releasing Peptide Receptor (human (endogenous in PC3)) (UniProt P30550)
# Test: radioligand binding; displacement of the small-molecule tracer [18F]PD410 from PC3 cells by increasing concentrations of the peptide
# Sequence of Gastrin-Releasing Peptide Receptor (human (endogenous in PC3)) (P30550 whole entry): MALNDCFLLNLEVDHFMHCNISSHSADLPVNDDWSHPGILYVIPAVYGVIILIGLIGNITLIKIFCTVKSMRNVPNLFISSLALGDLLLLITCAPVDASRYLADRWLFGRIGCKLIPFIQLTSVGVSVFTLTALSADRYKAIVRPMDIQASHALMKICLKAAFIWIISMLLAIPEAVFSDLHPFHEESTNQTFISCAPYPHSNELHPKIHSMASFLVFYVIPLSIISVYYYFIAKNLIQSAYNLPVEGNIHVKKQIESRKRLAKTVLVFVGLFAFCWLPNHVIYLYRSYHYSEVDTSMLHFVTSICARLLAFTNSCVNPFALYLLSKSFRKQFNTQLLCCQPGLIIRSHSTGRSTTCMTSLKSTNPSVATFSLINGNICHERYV
substance,measurement,value
Glu[Aca-BN(7-14)]2 (peptide),IC50,0.1 nM
